From the supplement of paper PMC10065799, “High-throughput profiling of sequence recognition by tyrosine kinases and SH2 domains using bacterial peptide display” (eLife, 2023)
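Note: 11-residue human phosphosite peptides and single-mutation variants displayed on the E. coli surface, counted by deep sequencing, each peptide's frequency after selection divided by its frequency in the unselected input library; frequency after pTyr selection over input frequency; kinase dosed for 20-30% of maximal phosphorylation in three min.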

The sequences below were run on AncSZ (assay: phosphorylation enrichment, bacterial display (enrichment ratio); higher = better substrate or ligand; peptides without Tyr show the background).
NFADPYRQLPF [CTNND2_Y503_Q507P_YF] was tested, and the phosphorylation enrichment was 0.732.
For VYAANYYKLLG [ROR2_Y645_D644N], the phosphorylation enrichment was 0.779.
With CQAHGYSCQLI [STK11_Y156_F157S] the phosphorylation enrichment was 0.77.
In the case of GMRHGHGVRQS [JPH2_Y141_Y141H], the phosphorylation enrichment is reported as 0.646.
Work on LWPIWYSCHRP [MRGPRX1_Y130_R131S] yielded a phosphorylation enrichment of 1.82.
PFFASYPPSPD [GDAP2_Y491_T489A_YF] gave a phosphorylation enrichment of 1.03.
CTTSHYNYMCN [TP53_Y234_I232S] showed a phosphorylation enrichment of 0.896.
Work on YIRRDYEACKA [BBS4_Y48_K46R] yielded a phosphorylation enrichment of 0.765.
In the case of SISYDYCRVPM [BST2_Y8_T4I], the phosphorylation enrichment is reported as 3.91.
LPHVIYCRLWC [SMAD2_Y128_R133C] was tested, and the phosphorylation enrichment was 1.12.
For LHAAAYWNALA [UQCRC2_Y182_R183W], the phosphorylation enrichment was 0.769.
AGADGYGYLAP [FOXL2_Y186] was tested, and the phosphorylation enrichment was 0.576.
PVQAAYKKVVA [HBB_Y131_Q132K] was tested, and the phosphorylation enrichment was 0.645.
KVIDMYLMGCF [GABRB2_Y308_A304V] was tested, and the phosphorylation enrichment was 1.28.
With LRFDVYGGENE [STOX1_Y610_E608D_YF] the phosphorylation enrichment was 1.09.
In the case of DTYDPYLDVAL [USP36_Y268], the phosphorylation enrichment is reported as 1.55.
For EVVGKYSVHNA [MLH1_Y183_R182K], the phosphorylation enrichment was 0.612.
In the case of NSIGNYYKPWF [DHCR24_Y299], the phosphorylation enrichment is reported as 1.14.
In the case of PNEAVYTKMMT [G6PD_Y401], the phosphorylation enrichment is reported as 1.
In the case of CTTIHKNFMCN [TP53_Y234_Y234K_YF], the phosphorylation enrichment is reported as 0.831.
QAEELYFGKMG [YES1_Y159_W158L] was tested, and the phosphorylation enrichment was 2.15.
With ESLRSYDVMDV [KCNQ2_Y562_P561S] the phosphorylation enrichment was 1.03.
In the case of AIIGIYILRDD [CDH23_Y2949], the phosphorylation enrichment is reported as 1.24.
In the case of ESLSSYWESAK [APOC2_Y47], the phosphorylation enrichment is reported as 0.84.
Sequence EGDGVYTLNDE [HP_Y125_N129D] has a phosphorylation enrichment of 1.18.
Work on RKVLVYDKLNV [ROR2_Y624_N620K] yielded a phosphorylation enrichment of 0.875.
Sequence AACQHYGVRTC [NR4A2_Y275] has a phosphorylation enrichment of 0.592.
Work on RNFVHYVQGLK [VWF_Y1400_R1399H] yielded a phosphorylation enrichment of 0.875.
CLEKEYFDQHF [NPC1_Y394_R389C] was tested, and the phosphorylation enrichment was 1.53.
In the case of KPLMPCMRFSR [SMARCE1_Y73_Y73C_YF], the phosphorylation enrichment is reported as 0.92.
In the case of SDYYAYSPVQE [H6PD_Y449_R453Q], the phosphorylation enrichment is reported as 6.17.
For AAQNCYKVTNG [TPI1_Y105], the phosphorylation enrichment was 0.725.
Work on RRAVKYLQMVG [AVPR2_Y117_C112R] yielded a phosphorylation enrichment of 1.13.

What follows are sequences tested against FGFR3 (UniProt P22607) in the same assay as above.
FGFR3, sequence (P22607 whole entry, looked up): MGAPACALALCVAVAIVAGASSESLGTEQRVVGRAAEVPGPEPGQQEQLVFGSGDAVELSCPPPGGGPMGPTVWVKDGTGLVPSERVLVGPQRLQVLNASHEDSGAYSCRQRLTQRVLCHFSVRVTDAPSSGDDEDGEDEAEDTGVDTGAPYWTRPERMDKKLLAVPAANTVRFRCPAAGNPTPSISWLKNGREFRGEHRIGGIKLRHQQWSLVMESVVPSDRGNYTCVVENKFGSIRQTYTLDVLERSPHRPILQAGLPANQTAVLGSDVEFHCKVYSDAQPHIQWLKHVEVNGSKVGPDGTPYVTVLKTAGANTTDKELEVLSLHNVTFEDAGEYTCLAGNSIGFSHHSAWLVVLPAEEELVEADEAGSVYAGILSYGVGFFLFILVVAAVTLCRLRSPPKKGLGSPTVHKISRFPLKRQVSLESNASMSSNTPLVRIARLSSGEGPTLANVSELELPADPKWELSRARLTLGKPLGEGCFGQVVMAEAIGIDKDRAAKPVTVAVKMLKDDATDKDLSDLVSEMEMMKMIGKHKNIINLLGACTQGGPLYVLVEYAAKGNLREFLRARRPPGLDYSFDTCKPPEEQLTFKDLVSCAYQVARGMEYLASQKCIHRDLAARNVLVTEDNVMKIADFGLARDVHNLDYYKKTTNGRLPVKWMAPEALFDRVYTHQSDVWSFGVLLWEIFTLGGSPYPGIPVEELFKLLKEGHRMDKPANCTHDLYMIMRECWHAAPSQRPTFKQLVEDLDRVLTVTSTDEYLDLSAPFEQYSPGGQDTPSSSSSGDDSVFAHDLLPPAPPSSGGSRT
For NFADPYRQLPF [CTNND2_Y503_Q507P_YF], the phosphorylation enrichment was 0.652.
Sequence VYAANYYKLLG [ROR2_Y645_D644N] has a phosphorylation enrichment of 5.33.
In the case of CQAHGYSCQLI [STK11_Y156_F157S], the phosphorylation enrichment is reported as 0.531.
GMRHGHGVRQS [JPH2_Y141_Y141H] gave a phosphorylation enrichment of 0.696.
Sequence LWPIWYSCHRP [MRGPRX1_Y130_R131S] has a phosphorylation enrichment of 1.04.
With PFFASYPPSPD [GDAP2_Y491_T489A_YF] the phosphorylation enrichment was 0.839.
For CTTSHYNYMCN [TP53_Y234_I232S], the phosphorylation enrichment was 0.649.
With YIRRDYEACKA [BBS4_Y48_K46R] the phosphorylation enrichment was 0.578.
SISYDYCRVPM [BST2_Y8_T4I] was tested, and the phosphorylation enrichment was 5.46.
Work on LPHVIYCRLWC [SMAD2_Y128_R133C] yielded a phosphorylation enrichment of 0.645.
Sequence LHAAAYWNALA [UQCRC2_Y182_R183W] has a phosphorylation enrichment of 0.564.
With AGADGYGYLAP [FOXL2_Y186] the phosphorylation enrichment was 0.457.
With PVQAAYKKVVA [HBB_Y131_Q132K] the phosphorylation enrichment was 0.485.
KVIDMYLMGCF [GABRB2_Y308_A304V] was tested, and the phosphorylation enrichment was 0.842.
For LRFDVYGGENE [STOX1_Y610_E608D_YF], the phosphorylation enrichment was 0.629.
DTYDPYLDVAL [USP36_Y268] gave a phosphorylation enrichment of 0.853.
EVVGKYSVHNA [MLH1_Y183_R182K] was tested, and the phosphorylation enrichment was 0.449.
In the case of NSIGNYYKPWF [DHCR24_Y299], the phosphorylation enrichment is reported as 4.33.
In the case of PNEAVYTKMMT [G6PD_Y401], the phosphorylation enrichment is reported as 0.571.
Sequence CTTIHKNFMCN [TP53_Y234_Y234K_YF] has a phosphorylation enrichment of 0.585.
Work on QAEELYFGKMG [YES1_Y159_W158L] yielded a phosphorylation enrichment of 1.55.
In the case of ESLRSYDVMDV [KCNQ2_Y562_P561S], the phosphorylation enrichment is reported as 0.993.
Sequence AIIGIYILRDD [CDH23_Y2949] has a phosphorylation enrichment of 0.753.
With ESLSSYWESAK [APOC2_Y47] the phosphorylation enrichment was 0.692.
With EGDGVYTLNDE [HP_Y125_N129D] the phosphorylation enrichment was 0.838.
Sequence RKVLVYDKLNV [ROR2_Y624_N620K] has a phosphorylation enrichment of 0.44.
For AACQHYGVRTC [NR4A2_Y275], the phosphorylation enrichment was 0.405.
For RNFVHYVQGLK [VWF_Y1400_R1399H], the phosphorylation enrichment was 0.52.
CLEKEYFDQHF [NPC1_Y394_R389C] showed a phosphorylation enrichment of 1.13.
Work on KPLMPCMRFSR [SMARCE1_Y73_Y73C_YF] yielded a phosphorylation enrichment of 0.502.
Sequence SDYYAYSPVQE [H6PD_Y449_R453Q] has a phosphorylation enrichment of 14.9.
Work on AAQNCYKVTNG [TPI1_Y105] yielded a phosphorylation enrichment of 0.536.
For RRAVKYLQMVG [AVPR2_Y117_C112R], the phosphorylation enrichment was 0.629.

What follows are sequences tested against Fyn (UniProt P06241) in the same assay as above.
Fyn, sequence (P06241 whole entry, looked up): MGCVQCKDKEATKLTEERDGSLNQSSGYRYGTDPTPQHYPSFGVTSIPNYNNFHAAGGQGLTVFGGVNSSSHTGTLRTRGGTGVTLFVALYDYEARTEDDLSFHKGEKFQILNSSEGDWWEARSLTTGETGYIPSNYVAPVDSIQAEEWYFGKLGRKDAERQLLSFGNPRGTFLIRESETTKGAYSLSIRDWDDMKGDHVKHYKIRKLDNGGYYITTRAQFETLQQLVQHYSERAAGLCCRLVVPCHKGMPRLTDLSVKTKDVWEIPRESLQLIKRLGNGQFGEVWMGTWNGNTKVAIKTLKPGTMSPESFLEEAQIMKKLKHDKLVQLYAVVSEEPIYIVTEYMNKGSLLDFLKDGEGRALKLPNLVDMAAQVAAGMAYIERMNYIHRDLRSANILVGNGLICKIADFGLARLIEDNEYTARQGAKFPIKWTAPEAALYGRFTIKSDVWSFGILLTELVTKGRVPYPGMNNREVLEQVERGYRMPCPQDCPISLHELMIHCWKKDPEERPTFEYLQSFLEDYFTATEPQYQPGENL
Work on NFADPYRQLPF [CTNND2_Y503_Q507P_YF] yielded a phosphorylation enrichment of 0.587.
In the case of VYAANYYKLLG [ROR2_Y645_D644N], the phosphorylation enrichment is reported as 1.28.
CQAHGYSCQLI [STK11_Y156_F157S] was tested, and the phosphorylation enrichment was 0.648.
Work on GMRHGHGVRQS [JPH2_Y141_Y141H] yielded a phosphorylation enrichment of 0.419.
LWPIWYSCHRP [MRGPRX1_Y130_R131S] was tested, and the phosphorylation enrichment was 0.519.
PFFASYPPSPD [GDAP2_Y491_T489A_YF] gave a phosphorylation enrichment of 0.784.
CTTSHYNYMCN [TP53_Y234_I232S] gave a phosphorylation enrichment of 0.49.
YIRRDYEACKA [BBS4_Y48_K46R] showed a phosphorylation enrichment of 0.572.
In the case of SISYDYCRVPM [BST2_Y8_T4I], the phosphorylation enrichment is reported as 0.965.
With LPHVIYCRLWC [SMAD2_Y128_R133C] the phosphorylation enrichment was 5.86.
Sequence LHAAAYWNALA [UQCRC2_Y182_R183W] has a phosphorylation enrichment of 0.388.
Work on AGADGYGYLAP [FOXL2_Y186] yielded a phosphorylation enrichment of 0.361.
Work on PVQAAYKKVVA [HBB_Y131_Q132K] yielded a phosphorylation enrichment of 0.506.
With KVIDMYLMGCF [GABRB2_Y308_A304V] the phosphorylation enrichment was 0.535.
Work on LRFDVYGGENE [STOX1_Y610_E608D_YF] yielded a phosphorylation enrichment of 0.539.
DTYDPYLDVAL [USP36_Y268] gave a phosphorylation enrichment of 1.19.
EVVGKYSVHNA [MLH1_Y183_R182K] showed a phosphorylation enrichment of 0.428.
For NSIGNYYKPWF [DHCR24_Y299], the phosphorylation enrichment was 0.568.
With PNEAVYTKMMT [G6PD_Y401] the phosphorylation enrichment was 2.31.
CTTIHKNFMCN [TP53_Y234_Y234K_YF] showed a phosphorylation enrichment of 0.409.
With QAEELYFGKMG [YES1_Y159_W158L] the phosphorylation enrichment was 3.61.
ESLRSYDVMDV [KCNQ2_Y562_P561S] was tested, and the phosphorylation enrichment was 0.556.
With AIIGIYILRDD [CDH23_Y2949] the phosphorylation enrichment was 1.18.
ESLSSYWESAK [APOC2_Y47] showed a phosphorylation enrichment of 0.414.
EGDGVYTLNDE [HP_Y125_N129D] showed a phosphorylation enrichment of 4.51.
RKVLVYDKLNV [ROR2_Y624_N620K] showed a phosphorylation enrichment of 1.71.
AACQHYGVRTC [NR4A2_Y275] gave a phosphorylation enrichment of 0.452.
RNFVHYVQGLK [VWF_Y1400_R1399H] showed a phosphorylation enrichment of 0.613.
Sequence CLEKEYFDQHF [NPC1_Y394_R389C] has a phosphorylation enrichment of 0.514.
KPLMPCMRFSR [SMARCE1_Y73_Y73C_YF] was tested, and the phosphorylation enrichment was 0.466.
In the case of SDYYAYSPVQE [H6PD_Y449_R453Q], the phosphorylation enrichment is reported as 8.25.
AAQNCYKVTNG [TPI1_Y105] showed a phosphorylation enrichment of 0.411.
RRAVKYLQMVG [AVPR2_Y117_C112R] was tested, and the phosphorylation enrichment was 0.778.

What follows are sequences tested against MERTK (UniProt Q12866) in the same assay as above.
MERTK, sequence (Q12866 whole entry, looked up): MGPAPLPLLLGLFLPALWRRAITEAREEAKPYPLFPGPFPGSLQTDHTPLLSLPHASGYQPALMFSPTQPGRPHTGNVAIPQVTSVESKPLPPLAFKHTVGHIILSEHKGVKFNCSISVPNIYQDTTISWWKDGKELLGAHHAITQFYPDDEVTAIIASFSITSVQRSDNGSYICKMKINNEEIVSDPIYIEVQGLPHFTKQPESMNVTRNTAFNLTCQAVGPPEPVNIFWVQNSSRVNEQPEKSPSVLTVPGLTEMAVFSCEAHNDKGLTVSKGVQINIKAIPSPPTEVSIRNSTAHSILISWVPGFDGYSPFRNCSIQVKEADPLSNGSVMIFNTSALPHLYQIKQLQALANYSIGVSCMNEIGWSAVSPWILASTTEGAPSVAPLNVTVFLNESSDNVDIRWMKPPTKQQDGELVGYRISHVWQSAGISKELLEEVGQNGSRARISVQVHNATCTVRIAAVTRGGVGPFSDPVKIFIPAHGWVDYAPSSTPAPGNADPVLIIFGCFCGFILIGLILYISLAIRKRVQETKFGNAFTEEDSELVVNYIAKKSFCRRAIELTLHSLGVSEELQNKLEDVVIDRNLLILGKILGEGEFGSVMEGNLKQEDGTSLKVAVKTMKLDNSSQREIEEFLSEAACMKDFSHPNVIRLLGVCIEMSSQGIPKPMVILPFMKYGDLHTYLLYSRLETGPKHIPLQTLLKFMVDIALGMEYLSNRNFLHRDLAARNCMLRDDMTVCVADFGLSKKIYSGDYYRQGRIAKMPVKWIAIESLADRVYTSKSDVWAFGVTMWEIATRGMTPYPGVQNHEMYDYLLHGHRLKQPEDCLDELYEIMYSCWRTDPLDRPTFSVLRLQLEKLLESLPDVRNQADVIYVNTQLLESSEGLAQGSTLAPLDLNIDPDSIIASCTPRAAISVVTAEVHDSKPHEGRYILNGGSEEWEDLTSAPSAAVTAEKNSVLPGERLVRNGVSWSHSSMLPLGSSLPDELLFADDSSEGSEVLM
In the case of NFADPYRQLPF [CTNND2_Y503_Q507P_YF], the phosphorylation enrichment is reported as 0.417.
VYAANYYKLLG [ROR2_Y645_D644N] was tested, and the phosphorylation enrichment was 5.56.
Work on CQAHGYSCQLI [STK11_Y156_F157S] yielded a phosphorylation enrichment of 0.47.
Work on GMRHGHGVRQS [JPH2_Y141_Y141H] yielded a phosphorylation enrichment of 0.462.
Work on LWPIWYSCHRP [MRGPRX1_Y130_R131S] yielded a phosphorylation enrichment of 0.687.
For PFFASYPPSPD [GDAP2_Y491_T489A_YF], the phosphorylation enrichment was 0.769.
Work on CTTSHYNYMCN [TP53_Y234_I232S] yielded a phosphorylation enrichment of 0.549.
YIRRDYEACKA [BBS4_Y48_K46R] gave a phosphorylation enrichment of 0.435.
With SISYDYCRVPM [BST2_Y8_T4I] the phosphorylation enrichment was 2.98.
LPHVIYCRLWC [SMAD2_Y128_R133C] showed a phosphorylation enrichment of 2.98.
LHAAAYWNALA [UQCRC2_Y182_R183W] showed a phosphorylation enrichment of 0.461.
For AGADGYGYLAP [FOXL2_Y186], the phosphorylation enrichment was 0.364.
For PVQAAYKKVVA [HBB_Y131_Q132K], the phosphorylation enrichment was 0.578.
Work on KVIDMYLMGCF [GABRB2_Y308_A304V] yielded a phosphorylation enrichment of 0.429.
Sequence LRFDVYGGENE [STOX1_Y610_E608D_YF] has a phosphorylation enrichment of 0.405.
DTYDPYLDVAL [USP36_Y268] showed a phosphorylation enrichment of 0.412.
EVVGKYSVHNA [MLH1_Y183_R182K] showed a phosphorylation enrichment of 0.374.
Work on NSIGNYYKPWF [DHCR24_Y299] yielded a phosphorylation enrichment of 8.27.
PNEAVYTKMMT [G6PD_Y401] was tested, and the phosphorylation enrichment was 1.48.
In the case of CTTIHKNFMCN [TP53_Y234_Y234K_YF], the phosphorylation enrichment is reported as 0.42.
QAEELYFGKMG [YES1_Y159_W158L] showed a phosphorylation enrichment of 1.87.
Sequence ESLRSYDVMDV [KCNQ2_Y562_P561S] has a phosphorylation enrichment of 0.523.
AIIGIYILRDD [CDH23_Y2949] showed a phosphorylation enrichment of 0.546.
Sequence ESLSSYWESAK [APOC2_Y47] has a phosphorylation enrichment of 0.381.
EGDGVYTLNDE [HP_Y125_N129D] showed a phosphorylation enrichment of 0.482.
With RKVLVYDKLNV [ROR2_Y624_N620K] the phosphorylation enrichment was 2.
AACQHYGVRTC [NR4A2_Y275] showed a phosphorylation enrichment of 0.406.
RNFVHYVQGLK [VWF_Y1400_R1399H] was tested, and the phosphorylation enrichment was 0.544.
CLEKEYFDQHF [NPC1_Y394_R389C] gave a phosphorylation enrichment of 0.406.
KPLMPCMRFSR [SMARCE1_Y73_Y73C_YF] showed a phosphorylation enrichment of 0.506.
For SDYYAYSPVQE [H6PD_Y449_R453Q], the phosphorylation enrichment was 9.08.
Sequence AAQNCYKVTNG [TPI1_Y105] has a phosphorylation enrichment of 0.411.
Work on RRAVKYLQMVG [AVPR2_Y117_C112R] yielded a phosphorylation enrichment of 0.727.
